Laboratory results taken from patent publication US20240165214A1, “COMPOSITIONS AND METHODS FOR STABILIZATION OF ALLOSTERIC PROTEINS” (priority 2021, published 2024).

What was measured:
[1] = target: horseradish peroxidase (HRP) (horseradish) (UniProt P00433); assay: time course of soluble HRP on fimbriae pre-treated with mAb824
[2] = target: FimH^FocH (Escherichia coli K12; Escherichia coli) (UniProt P08191); assay: ELISA, mAb824 on FimH^FocH fimbriae, with 1% αmm
[3] = target: FimH^FocH (Escherichia coli K12; Escherichia coli) (UniProt P08191); assay: ELISA, mAb824 on FimH^FocH fimbriae, without αmm
[4] = target: FimH^wt (FimH adhesin of E. coli K12) (Escherichia coli K12) (UniProt P08191); assay: ELISA, mAb824 on FimH^wt fimbriae, without αmm
[5] = target: FimH^FocH (Escherichia coli K12; Escherichia coli) (UniProt P08191); assay: cell-based or functional assay
[6] = target: FimH^wt (FimH adhesin of E. coli K12) (Escherichia coli K12) (UniProt P08191); assay: cell-based or functional assay
[7] = target: FimH^wt (FimH adhesin of E. coli K12) (Escherichia coli K12) (UniProt P08191); assay: ELISA, mAb824 on FimH^wt fimbriae, with 1% αmm
fimbrial FimH = assay: mAb21 ELISA on fimbriae after αmm / Fab824 pre-treatment; assay type: binding, Escherichia coli; settings: FimH^wt pre-treated with PBS only
Description: Bound antibodies were detected with a 1:5,000 diluted HRP-conjugated goat anti-mouse Fc antibody (Sigma-Aldrich). […] Binding of the latter antibody was detected using 1:5,000 diluted HRP-conjugated streptavidin (Invitrogen).

yeast mannan = assay: FimH-dependent bacterial adhesion to yeast mannan (Example 7); assay type: cell-based; settings: 1% mannose
Protocol: FimH-dependent bacterial adhesion was analyzed as described previously. Briefly, Immulon 4HBX microtiter plates (Thermo Electron Corp.) were coated with 20 μg/mL of yeast mannan and plates were quenched with 0.2% BSA in PBS. Bacterial suspensions in PBS (OD540=2) were added to each well in a volume of 100 μl and incubated for 1 h at 37° C. After extensive washing, bound bacteria were stained with 0.1% (vol/vol) crystal violet for 20 min at room temperature and were washed several times with water. Then 100 μl of 50% (vol/vol) ethanol was added to each well, and the absorbance at a wavelength of 600 nm was measured. For inhibition, bacterial binding was tested in the presence of 1% mannose.

asialofetuin = target: T1, asialofetuin (UniProt P12763 19-359, oligosaccharides with terminal galactose (beta1-3)); assay: adhesion of bacteria expressing the FmlH variant to surface-coated asialofetuin, crystal violet, absorbance 600 nm
T1 construct: also called asialated fetuin
T1 sequence (looked up): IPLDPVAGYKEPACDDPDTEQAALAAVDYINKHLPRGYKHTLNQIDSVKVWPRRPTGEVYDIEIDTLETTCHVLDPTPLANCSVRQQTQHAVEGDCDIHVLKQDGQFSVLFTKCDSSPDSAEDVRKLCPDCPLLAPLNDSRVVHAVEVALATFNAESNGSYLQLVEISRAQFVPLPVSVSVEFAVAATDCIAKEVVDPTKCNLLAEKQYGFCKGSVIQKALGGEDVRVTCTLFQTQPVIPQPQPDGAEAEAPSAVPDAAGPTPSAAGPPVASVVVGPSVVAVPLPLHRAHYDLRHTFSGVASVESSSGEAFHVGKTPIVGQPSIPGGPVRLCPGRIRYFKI
Protocol: Briefly, Immulon 4HBX microtiter plates (Thermo Electron Corp.) were coated with 20 μg/mL of asialofetuin (Sigma-Aldrich) and plates were quenched with 0.2% BSA in PBS. Bacterial suspensions in PBS (OD540=2) were added to each well in a volume of 100 μl and plates were spun for 2 min at 750×g. After extensive washing, bound bacteria were stained with 0.1% (vol/vol) crystal violet for 20 min at room temperature and were washed several times with water. Then 100 μl of 50% (vol/vol) ethanol was added to each well, and the absorbance at a wavelength of 600 nm was measured. For inhibition, bacterial binding was tested in the presence of 1% galactose (Sigma).
Briefly, Immulon 4HBX microtiter plates (ThermoFisher Scientific) were coated with 20 μg/mL of asialofetuin (Sigma-Aldrich) and plates were quenched with 0.2% BSA in PBS. Bacterial suspensions in PBS (OD540=2) were added to each well in a volume of 100 μl and plates were spun for 2 min at 750×g. After extensive washing, bound bacteria were stained with 0.1% (vol/vol) crystal violet for 20 min at room temperature and were washed several times with water. Then 100 μl of 50% (vol/vol) ethanol was added to each well, and the absorbance at a wavelength of 600 nm was measured. For inhibition, bacterial binding was tested in the presence of 1% galactose (Sigma).

Chain of horseradish peroxidase (HRP) (horseradish) (P00433 31-338): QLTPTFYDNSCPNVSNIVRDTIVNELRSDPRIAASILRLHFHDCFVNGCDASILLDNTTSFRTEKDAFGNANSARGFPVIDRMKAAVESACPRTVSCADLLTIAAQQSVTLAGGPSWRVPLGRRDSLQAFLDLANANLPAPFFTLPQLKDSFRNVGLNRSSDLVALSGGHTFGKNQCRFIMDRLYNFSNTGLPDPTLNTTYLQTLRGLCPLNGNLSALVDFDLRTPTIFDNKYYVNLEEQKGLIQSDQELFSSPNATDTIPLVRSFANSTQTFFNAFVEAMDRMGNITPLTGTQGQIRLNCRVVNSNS

FimH^FocH (from UniProt P08191 22-300)
fold decrease in the rate of binding with mAb824 against untreated [1]: > 10 fold

mAb824 (antibody)
EC50 (read off the curve) [2]: 0.02 nM | EC50 (read off the curve) [3]: 0.02 nM | EC50 (read off the curve) [4]: 0.02 nM | RBC agglutination: time (in min) upon which noticeable aggregation of RBC was observed [5]: > 60 min | RBC agglutination: time (in min) upon which noticeable aggregation of RBC was observed [6]: > 60 min | EC50 (read off the curve) [7]: 0.02 nM

α-methyl-D-mannopyranoside [αmm]
αmm concentration at plateau of mAb21 binding (fimbrial FimH): 0.1-1.0 % αmm | inhibition of bacterial adhesion to yeast mannan-coated surface (yeast mannan): > 95%

B1: FmIH^wt (full-length wild-type FmlH adhesin) (other, Escherichia coli CFT073)
chain: FSCNVDGGSSIGAGTTSVYVNLDPVIQPGQNLVVDLSQHISCWNDYGGWYDTDHINLVQGSAFAGSLQSYKGSLYWNNVTYPFPLTTNTNVLDIGDKTPMPLPLKLYITPVGAAGGVVIKAGEVIARIHMYKIATLGSGNPRNFTWNIISNNSVVMPTGGCTVDSRNVTVDLPDFPGSAEIPLGVYCSSEQKLSFYLSGATTDSSRQVFANTAPDATKASGVGVTLMRNGKILATGENVSLGTVNKSKVPLGLSATYGQTGNKVSAGTVQSVIGVTFIYE
notes: domain: pilin domain; Expressed on bacteria in the type 1 fimbrial background
binding result (asialofetuin): no binding
